Experiments:
[1] = target: T1, thyroid stimulating hormone receptor (full length human TSHR) (human, UniProt P16473 22-764); test: competitor ^125I-K1-70 IgG, TSHR coated tubes; 10 µg/mL in HBD
T1 construct: Full length TSHR coated onto plastic tubes (TSHR coated tubes, as in WO2004/050708A2); also called TSH receptor
Procedure: (§1) Binding inhibition assays were carried out using TSHR coated tubes as described in WO2004/050708A2. […] After aspiration, the tubes were washed and 100 μL of ¹²⁵I-labelled protein (5×10⁴ cpm) added and incubated for 1 hour at room temperature with shaking. The tubes were then aspirated, washed and counted in a gamma counter. Inhibition of labelled protein binding was calculated as 100×[1−(cpm bound in the presence of test material/cpm bound in the presence of control material)].

[2] = target: T1, thyroid stimulating hormone receptor …; test: competitor ^125I-K1-70 IgG, TSHR coated tubes; 0.03 µg/mL in assay buffer
Procedure: as §1

[3] = target: T1, thyroid stimulating hormone receptor …; test: competitor ^125I-K1-70 IgG, TSHR coated tubes; 1 µg/mL in HBD
Procedure: as §1

[4] = target: T1, thyroid stimulating hormone receptor …; test: competitor ^125I-K1-70 IgG, TSHR coated tubes; 0.003 µg/mL in HBD
Procedure: as §1

[5] = target: T1, thyroid stimulating hormone receptor …; test: competitor ^125I-K1-70 IgG, TSHR coated tubes; 3 µg/mL in assay buffer
Procedure: as §1

[6] = target: T1, thyroid stimulating hormone receptor …; test: competitor ^125I-K1-70 IgG, TSHR coated tubes; 100 µg/mL in HBD
Procedure: as §1

[7] = target: T1, thyroid stimulating hormone receptor …; test: competitor ^125I-K1-70 IgG, TSHR coated tubes; 0.001 µg/mL in assay buffer
Procedure: as §1

[8] = target: T1, thyroid stimulating hormone receptor …; test: competitor ^125I-K1-70 IgG, TSHR coated tubes; 0.1 µg/mL in assay buffer
Procedure: as §1

[9] = target: T1, thyroid stimulating hormone receptor …; test: competitor ^125I-K1-70 IgG, TSHR coated tubes; 3 µg/mL in HBD
Procedure: as §1

[10] = target: T1, thyroid stimulating hormone receptor …; test: competitor ^125I-K1-70 IgG, TSHR coated tubes; 0.01 µg/mL in HBD
Procedure: as §1

[11] = target: T1, thyroid stimulating hormone receptor …; test: competitor ^125I-K1-70 IgG, TSHR coated tubes; 0.3 µg/mL in HBD
Procedure: as §1

[12] = target: T1, thyroid stimulating hormone receptor …; test: competitor ^125I-K1-70 IgG, TSHR coated tubes; 0.001 µg/mL in HBD
Procedure: as §1

[13] = target: T1, thyroid stimulating hormone receptor …; test: competitor ^125I-K1-70 IgG, TSHR coated tubes; 0.1 µg/mL in HBD
Procedure: as §1

[14] = target: T1, thyroid stimulating hormone receptor …; test: competitor ^125I-K1-70 IgG, TSHR coated tubes; 100 µg/mL in assay buffer
Procedure: as §1

[15] = target: T1, thyroid stimulating hormone receptor …; test: competitor ^125I-K1-70 IgG, TSHR coated tubes; 0.03 µg/mL in HBD
Procedure: as §1

[16] = target: T1, thyroid stimulating hormone receptor …; test: competitor ^125I-K1-70 IgG, TSHR coated tubes; 30 µg/mL in assay buffer
Procedure: as §1

[17] = target: T1, thyroid stimulating hormone receptor …; test: competitor ^125I-K1-70 IgG, TSHR coated tubes; 0.01 µg/mL in assay buffer
Procedure: as §1

[18] = target: T1, thyroid stimulating hormone receptor …; test: competitor ^125I-K1-70 IgG, TSHR coated tubes; 0.003 µg/mL in assay buffer
Procedure: as §1

[19] = target: T1, thyroid stimulating hormone receptor …; test: competitor ^125I-K1-70 IgG, TSHR coated tubes; 1 µg/mL in assay buffer
Procedure: as §1

[20] = target: T1, thyroid stimulating hormone receptor …; test: competitor ^125I-K1-70 IgG, TSHR coated tubes; 30 µg/mL in HBD
Procedure: as §1

[21] = target: T1, thyroid stimulating hormone receptor …; test: competitor ^125I-K1-70 IgG, TSHR coated tubes; 0.3 µg/mL in assay buffer
Procedure: as §1

[22] = target: T1, thyroid stimulating hormone receptor …; test: competitor ^125I-K1-70 IgG, TSHR coated tubes; 10 µg/mL in assay buffer
Procedure: as §1

B1: K1-70 Fab (Fab, V domains shown)
VH: EVQLVQSGAEVKKPGQSLKISCKASGYSLTDNWIGWVRQKPGKGLEWMGIIYPGDSDTRYSPSFQGQVTISADKSINTAYLQWSSLKASDTAIYYCVGLDWNYNPLRYWGPGTLVTVSS
VL: QSVLTQPPSVSAAPGQKVTISCSGSSSDIGSNYVSWYQQFPGTAPKLLIYDNNKRPSAIPDRFSGSKSGTSATLGITGLQTGDEADYYCGTWDSRLGIAVFGGGTQLTVLG
- Inhibition of binding (%) [1]: 90.6%
- Inhibition of binding (%) [2]: 81.7%
- Inhibition of binding (%) [3]: 89.5%
- Inhibition of binding (%) [4]: 5.6%
- Inhibition of binding (%) [5]: 89.4%
- Inhibition of binding (%) [6]: 90.8%
- Inhibition of binding (%) [7]: 12.2%
- Inhibition of binding (%) [8]: 87.5%
- Inhibition of binding (%) [9]: 90.9%
- Inhibition of binding (%) [10]: 21.6%
- Inhibition of binding (%) [11]: 87.3%
- Inhibition of binding (%) [12]: -3.6%
- Inhibition of binding (%) [13]: 76.5%
- Inhibition of binding (%) [14]: 91.5%
- Inhibition of binding (%) [15]: 49.6%
- Inhibition of binding (%) [16]: 90.7%
- Inhibition of binding (%) [17]: 64.8%
- Inhibition of binding (%) [18]: 32.7%
- Inhibition of binding (%) [19]: 88.3%
- Inhibition of binding (%) [20]: 91%
- Inhibition of binding (%) [21]: 88%
- Inhibition of binding (%) [22]: 89.8%

— US20110300138A1 (published 2011)
